Assay [1] addresses T1, human IL-33 WT, reduced with DTT (human, UniProt O95760 112-270).
T1 construct: Wild-type cysteines, FLAG tag in the entry; reduced with 3 mM DTT before use; also called huIL33 wt; hu IL-33 (WT + DTT)
T1 sequence: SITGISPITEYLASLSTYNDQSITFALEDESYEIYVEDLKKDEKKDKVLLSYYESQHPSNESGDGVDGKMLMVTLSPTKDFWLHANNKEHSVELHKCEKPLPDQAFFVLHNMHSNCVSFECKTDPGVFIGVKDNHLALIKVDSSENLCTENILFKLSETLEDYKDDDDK
Kind of assay: SPR, IL-33 amine-coupled to CM5, rat Fab in solution, 37 C. The protocol: Parallel studies were performed with non-reduced IL-33 and with IL-33 samples that had been reduced with 3 mM DTT for 3 hr. at room temperature prior to immobilization. […] Flow cell 1 was activated and blocked for use as a reference flow cell. […] Dissociation was monitored for 3600 seconds. Biacore kinetic assays were conducted at 37° C. at a collection rate of 1 Hz on a Biacore T200 instrument (GE Healthcare). Rate constants and affinities were determined by fitting the resulting sensorgram data to a 1:1 model in Biacore T200 Evaluation software version 1.0 (GE Healthcare).

Assay [2] addresses T2, wild-type cynomolgus monkey IL-33 (cynomolgus monkey).
T2 construct: Used reduced (DTT-treated); His6 in the entry; also called cyno IL-33 (WT + DTT); pfe cyno WT IL-33
T2 chain: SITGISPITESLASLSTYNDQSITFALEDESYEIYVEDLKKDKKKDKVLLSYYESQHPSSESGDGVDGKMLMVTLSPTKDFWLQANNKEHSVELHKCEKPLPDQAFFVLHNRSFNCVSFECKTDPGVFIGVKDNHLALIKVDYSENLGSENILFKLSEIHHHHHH
Kind of assay: SPR, IL-33 amine-coupled to CM5, Fab in solution, 37 C, Experiment 2. The protocol: (§1) Biacore kinetic assays were conducted at 37° C. at a collection rate of 1 Hz on a Biacore T200 instrument (GE Healthcare). Reduced and non-reduced wild-type human IL-33 and reduced wild-type cynomolgus monkey IL-33 were covalently coupled to a CM5 sensor chip (catalogue number BR100530, GE Healthcare) using an amine coupling kit (catalogue number BR100050, GE Healthcare) according to the manufacturer's protocol. Flow cell 1 was activated and blocked for use as a reference flow cell. […] The dilution and running buffer was HBS-EP+(10 mM HEPES pH 7.4, 0.15M NaCl, 3 mM EDTA, 0.05% P-20). Rate constants and affinities were determined by fitting the resulting sensorgram data to a 1:1 model in Biacore T200 Evaluation software version 1.0 (GE Healthcare). […] Kinetic properties of the bivalent IgG cannot be directly compared to those of monovalent Fab fragments and are not presented here.

In assay [3] the target is T1, human IL-33 WT, reduced with DTT. The description is as above. How it is done:
as §1

Assay [4] has as its target T2, wild-type cynomolgus monkey IL-33. Kind of assay: SPR, IL-33 amine-coupled to CM5, Fab in solution, 37 C, Experiment 1. The protocol:
as §1
In general terms: SPR reads the build-up and loss of mass on a sensor chip optically.

Assay [5] deals with T1, human IL-33 WT, reduced with DTT. The description is as above. The protocol:
as §1

For assay [6], the target named is T2, wild-type cynomolgus monkey IL-33. Kind of assay: SPR, Experiment 2; reference: human IL-33 (WT + DTT). The protocol:
as §1

In another assay the target is T3, human IL-33 (mm2) (human, UniProt O95760 112-270).
T3 construct: Variant in which all four cysteine residues are serine; the entry carries an N-terminal Met and a C-terminal His6; Biotinylated in some assays; also called hIL-33 (mm2); huIL-33 (mm2)
T3 chain: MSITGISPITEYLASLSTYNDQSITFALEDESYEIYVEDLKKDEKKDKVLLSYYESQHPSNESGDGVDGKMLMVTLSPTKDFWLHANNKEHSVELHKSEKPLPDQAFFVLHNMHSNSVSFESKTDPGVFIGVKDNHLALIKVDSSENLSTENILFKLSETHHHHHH
The experiment in a line: SPR, IL-33 amine-coupled to CM5, Fab in solution, 37 C. How it is done: (§2) Biacore kinetic assays were conducted at 37° C. at a collection rate of 1 Hz on a Biacore T200 instrument (GE Healthcare). Human IL33 (mm2), cynomolgus monkey IL-33, and reduced huIL33 wt were covalently coupled to a CM5 sensor chip (catalogue number BR100530, GE Healthcare) using an amine coupling kit (catalogue number BR100050, GE Healthcare) according to the manufacturer's protocol. […] The dilution and running buffer was HBS-EP+(10 mM HEPES pH 7.4, 0.15M NaCl, 3 mM EDTA, 0.05% P-20). Rate constants and affinities were determined by fitting the resulting sensorgram data to a 1:1 model in Biacore T200 Evaluation software version 1.0 (GE Healthcare).

Assay [7] addresses T1, human IL-33 WT, reduced with DTT. Described as above. The protocol:
as §2

The target in assay [8] is T4, cynomolgus monkey IL-33 (cys mut) (cynomolgus monkey).
T4 construct: Variant in which the three cysteine residues are serine; N-terminal Met and C-terminal His6 in the entry; also called cyno IL-33; cyno IL-33 (cys mut)
T4 chain: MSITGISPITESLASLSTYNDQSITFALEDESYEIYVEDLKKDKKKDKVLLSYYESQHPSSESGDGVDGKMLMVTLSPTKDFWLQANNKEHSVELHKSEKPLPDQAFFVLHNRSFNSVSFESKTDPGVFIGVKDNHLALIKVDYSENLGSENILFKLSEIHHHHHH
The description is as above. The protocol: as §2

In assay [9] the target is T2, wild-type cynomolgus monkey IL-33. Kind of assay: SPR, Experiment 1; reference: human IL-33 (WT + DTT). The protocol:
as §1

In the next assay the target is T5, IL-1α (UniProt P01583 113-271).
T5 sequence (looked up): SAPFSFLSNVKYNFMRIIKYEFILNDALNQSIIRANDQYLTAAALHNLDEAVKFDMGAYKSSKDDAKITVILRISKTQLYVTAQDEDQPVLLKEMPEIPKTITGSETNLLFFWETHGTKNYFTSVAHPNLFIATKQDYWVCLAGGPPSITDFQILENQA
Kind of assay: SPR (Biacore T200), Fab captured on the chip, cytokine injected. An excerpt: (§3) The panel of cytokines included IL-1α, IL-1β, IL-18, IL-36α, and IL-36γ.

Another assay addresses T6, IL-18 (UniProt Q14116 37-193).
T6 sequence (looked up): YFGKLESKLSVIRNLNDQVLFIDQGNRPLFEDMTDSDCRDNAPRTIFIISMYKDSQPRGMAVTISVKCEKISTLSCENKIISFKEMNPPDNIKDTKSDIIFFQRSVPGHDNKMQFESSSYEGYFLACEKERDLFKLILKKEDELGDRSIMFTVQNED
Described as above.
Excerpt: as §3

For the next assay, the target named is T7, IL-36γ (UniProt Q9NZH8 18-169).
T7 sequence (looked up): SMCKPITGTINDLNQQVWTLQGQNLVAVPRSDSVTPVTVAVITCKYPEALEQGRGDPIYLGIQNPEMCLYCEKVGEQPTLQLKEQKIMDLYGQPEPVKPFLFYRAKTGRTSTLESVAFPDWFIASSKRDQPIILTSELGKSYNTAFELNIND
Described as above.
Excerpt: as §3

The next assay addresses T8, IL-36α (UniProt Q9UHA7 6-158).
T8 sequence (looked up): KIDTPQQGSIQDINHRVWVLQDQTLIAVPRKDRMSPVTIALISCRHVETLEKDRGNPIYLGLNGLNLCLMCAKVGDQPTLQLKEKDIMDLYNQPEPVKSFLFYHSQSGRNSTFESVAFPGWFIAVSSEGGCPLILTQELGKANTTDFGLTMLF
The description is as above.
Excerpt: as §3

Another assay addresses IL-1β (UniProt P01584 117-269). Described as above.
Excerpt: as §3

The record followed here is patent US20180037644A1 (Pfizer, published 2018).

Usually Kd stands for the equilibrium constant for the complex coming apart. As usually defined, the koff is a measure of how fast the partners let go of each other. For orientation: kon means the second-order rate constant of association.

Changes are numbered by the printed parent chain.

B1: rat 7E8 Fab (Fab, V domains shown)
VH: EVQLVETGGGLVQPGRSLKLSCKTSGFTFSSYWMYWIRQAPGKGLEWVSSITPNGGNTYYPDSVKGRFTISRDNAENTIYLQMSSLRSEDTATYFCAKGHYYYTSYSLGYWGQGSLVTVSS
VL: EIQMTQSPSVLSASVGDRVTLSCKASQNINKHLDWYQQKLGEAPKLLIYFTNNLQTGIPSRFSGSGSGTDCTLTINSLQPGDVATYFCFQYNNGWTFGGGTKLELD
notes: Fab of the parental rat antibody; also called parental rat Fab 7E8
In assay [1], B1 displayed a Kd of 0.0442 nM, a koff of 0.000116 s⁻¹ and a kon of 2.55e+06 M⁻¹ s⁻¹.

B2: IL33-158LS Fab (Fab, V domains shown)
VH: EVQLVESGGGLVQPGGSLRLSCAASGFTFSSYWMYWVRQAPGKGLEWVAAITPNAGEDYYPESVKGRFTISRDNAKNSLYLQMNSLRAEDTAVYYCARGHYYYTSYSLGYWGQGTLVTVSS
VL: DIQMTQSPSSLSASVGDRVTITCKASQNINKHLDWYQQKPGKAPKLLIYFTNNLQTGVPSRFSGSGSGTDFTLTISSLQPEDFATYYCFQYNQGWTFGGGTKVEIKR
As for B2, the Kd in assay [2] came out at 0.228 nM; in assay [3] it was 0.101 nM; in assay [4] it was 0.139 nM; in assay [5], 0.106 nM; in the assay with human IL-33 (mm2), 0.013 nM; in [7], 0.0696 nM. In assay [8], the Kd was determined as 0.0104 nM. The dissociation rate constant (koff) amounted to 0.00121 s⁻¹ in [2]; 0.000417 s⁻¹ in [3]; 0.00062 s⁻¹ in assay [4]; 0.00033 s⁻¹ in [5]; 3.09e-05 s⁻¹ with human IL-33 (mm2); 0.000129 s⁻¹ in assay [7]. This molecule yielded a koff in [8] of 1.71e-05 s⁻¹. The kon in [2] amounted to 5.32e+06 M⁻¹ s⁻¹; in assay [3], 4.11e+06 M⁻¹ s⁻¹; in assay [4], 4.5e+06 M⁻¹ s⁻¹; in [5], 3.13e+06 M⁻¹ s⁻¹; in the assay with human IL-33 (mm2) it was 2.42e+06 M⁻¹ s⁻¹; in assay [7], 1.86e+06 M⁻¹ s⁻¹. This molecule also returned a kon in assay [8] of 1.64e+06 M⁻¹ s⁻¹. Further, the “Ratio of cynomolgus monkey KD/human KD” value in [6] worked out at 2.3; in [9], 1.3. Moreover, the binding result in the assay with IL-1α, with IL-18, with IL-36γ, with IL-36α and with IL-1β was “no binding” throughout.

B3: IL33-167LS Fab (Fab, V domains shown)
VH: B2 VH with A50S, E62D
VL: B2 VL with Q93N
B3: the Kd was found to be 0.218 nM in assay [2]; 0.089 nM in [3]; 0.139 nM in assay [4]; 0.091 nM in [5]; 0.0101 nM with human IL-33 (mm2); 0.0452 nM in [7]. Besides, in [8], the affinity, expressed as Kd, was 0.0134 nM. Besides, the koff in [2] was determined as 0.00119 s⁻¹; in assay [3] it was 0.00035 s⁻¹; in [4], 0.000665 s⁻¹; in assay [5] it was 0.000276 s⁻¹; in the assay with human IL-33 (mm2), 4.8e-05 s⁻¹; in assay [7], 6.56e-05 s⁻¹. Moreover, the koff in assay [8] amounted to 2.09e-05 s⁻¹. The kon in [2] is 5.5e+06 M⁻¹ s⁻¹; in assay [3], 3.96e+06 M⁻¹ s⁻¹; in assay [4], 4.81e+06 M⁻¹ s⁻¹; in [5], 3.03e+06 M⁻¹ s⁻¹; with human IL-33 (mm2), 4.75e+06 M⁻¹ s⁻¹; in assay [7], 1.45e+06 M⁻¹ s⁻¹. Also, the kon in assay [8] was found to be 1.57e+06 M⁻¹ s⁻¹. Moreover, the entries for the “Ratio of cynomolgus monkey KD/human KD” value in assay [6] and in [9] were 2.5 and 1.5, respectively.
